Source: patent US20190352387A1 (Chugai, published 2019)

T1: Recombinant mouse sclerostin (mouse, UniProt Q99P68 24-211)
T1 sequence: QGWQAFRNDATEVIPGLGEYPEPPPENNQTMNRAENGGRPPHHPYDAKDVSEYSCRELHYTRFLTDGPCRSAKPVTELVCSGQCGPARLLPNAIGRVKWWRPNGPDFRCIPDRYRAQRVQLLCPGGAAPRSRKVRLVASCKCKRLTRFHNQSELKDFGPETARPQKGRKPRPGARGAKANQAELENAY


What was measured:
[1] = target: T1, Recombinant mouse sclerostin; assay: cell-based or functional assay
[2] = target: T1, Recombinant mouse sclerostin; assay: cell-based or functional assay; remark: listed apart in the source
[3] = target: T1, Recombinant mouse sclerostin; assay: SPR (Biacore T200), 37 C, dissociation at pH 5.8 of complex formed at pH 7.4
Protocol: The affinity of anti-sclerostin variants binding to human, cynomolgus monkey (cyno), rat, or mouse sclerostin at pH 7.4 and pH 5.8 were determined at 37 degrees C. using Biacore T200 instrument (GE Healthcare). Anti-human Fc (GE Healthcare) was immobilized onto all flow cells of a CM4 sensor chip using amine coupling kit (GE Healthcare). All antibodies and analytes were prepared in ACES pH7.4 or pH 5.8 buffer containing 20 mM ACES, 150 mM NaCl, 1.2 mM CaCl₂, 0.05% Tween 20, 0.005% NaN₃. Each antibody was captured onto the sensor surface by anti-human Fc. […] Sensor surface was regenerated each cycle with 3M MgCl₂.
The pH dependent interaction assessment was determined by a modified Biacore assay. Briefly, an additional dissociation phase at pH5.8 was integrated into the Biacore assay immediately after dissociation phase at pH7.4. This is to assess the pH-dependent dissociation between antibody and antigen from the complexes formed at pH7.4. The dissociation rate at pH5.8 buffer was determined by processing and fitting data using Scrubber 2.0 (BioLogic Software) curve fitting software.

MFI of pHrodo-Red-labelled mouse sclerostin taken up into MDCK cells expressing human Fc gamma receptor IIB and human FcRn (flow cytometry) [1] [MFI]	IC50 (read off the curve); Wnt1-induced TCF/LEF luciferase reporter in HEK293T cells, % Inhibition of mouse SOST [2] [µg/mL]	koff [3] [s⁻¹]	Binder
2130	~10		mabB//mabA_pH3-BS01 (bispecific antibody, human IgG1, kappa) heavy 1: QVQLVQSGAEVKKPGASVKVSCKVSGFPIKHHFQHWVRQAPGKGLEWMGWSDPEIGDTEYASKFQGRVTMTEDTSTDTAYMELSSLRSEDTAVYYCATGHTTYKFDFWGQGTTVTVSSASTKGPSVFPLAPSSRSTSESTAALGCLVKDYFPEPVTVSWNSGALTSGVHTFPAVLQSSGLYSLSSVVTVPSSSLGTKTYTCNVDHKPSNTKVDKRVEPKSCDKTHTCPPCPAPELLGGPSVFLFPPKPKDTLMISRTPEVTCVVVDVSQEDPEVQFNWYVDGVEVHNAKTKPREEQFNSTYRVVSVLTVLHQDWLNGKEYKCKVSNKGLPSSIEKTISKAKGQPREPQVYTLPPSREEMTKNQVSLTCLVKGFYPSDIAVEWESNGQPENNYKTTPPYLDSDGSFFLYSKLTVDKSRWQQGNVFSCSVMHEALHNHYTQESLSLSP light 1: DIQMTQSPSSLSASVGDRVTITCKASQDVHTAVAWYQQKPGKAPKLLIYWASTRWTGVPSRFSGSGSGTDFTLTISSLQPEDFATYYCQQYSDYHWTFGGGTKVEIKRTVAAPSVFIFPPSDEQLKSGTASVVCLLNNFYPREAKVQWKVDNALQSGNSQESVTEQDSKDSTYSLSSTLTLSKADYEKHKVYACEVTHQGLSSPVTKSFNRGEC heavy 2: EVQLVQSGAEVKKPGASVKVSCKASGYTFTDYNMHWVRQAPGQGLEWMGEINPHSGHAGYNQKFKGRVTMTTDTSTSTAYMELRSLRSDDTAVYYCARLHYDDIHDDWYFDVWGQGTTVTVSSASTKGPSVFPLAPSSRSTSESTAALGCLVKDYFPEPVTVSWNSGALTSGVHTFPAVLQSSGLYSLSSVVTVPSSSLGTKTYTCNVDHKPSNTKVDKRVEPKSCDKTHTCPPCPAPELLGGPSVFLFPPKPKDTLMISRTPEVTCVVVDVSQEDPEVQFNWYVDGVEVHNAKTKPREEQFNSTYRVVSVLTVLHQDWLNGKEYKCKVSNKGLPSSIEKTISKAKGQPREPQVYTLPPSRKEMTKNQVSLTCLVKGFYPSDIAVEWESNGQPENNYKTTPPYLDSDGSFFLYSKLTVDKSRWQQGNVFSCSVMHEALHNHYTQKSLSLSP light 2: not shown
653			mabB//mabA_NpH3-BS01 (bispecific antibody, human IgG1, kappa) heavy 1: QVQLVQSGAEVKKPGASVKVSCKVSGFPIKHHFQHWVRQAPGKGLEWMGWSDPEIGDTEYASKFQGRVTMTEDTSTDTAYMELSSLRSEDTAVYYCATGDTTYKFDFWGQGTTVTVSSASTKGPSVFPLAPSSRSTSESTAALGCLVKDYFPEPVTVSWNSGALTSGVHTFPAVLQSSGLYSLSSVVTVPSSSLGTKTYTCNVDHKPSNTKVDKRVEPKSCDKTHTCPPCPAPELLGGPSVFLFPPKPKDTLMISRTPEVTCVVVDVSQEDPEVQFNWYVDGVEVHNAKTKPREEQFNSTYRVVSVLTVLHQDWLNGKEYKCKVSNKGLPSSIEKTISKAKGQPREPQVYTLPPSREEMTKNQVSLTCLVKGFYPSDIAVEWESNGQPENNYKTTPPYLDSDGSFFLYSKLTVDKSRWQQGNVFSCSVMHEALHNHYTQESLSLSP light 1: DIQMTQSPSSLSASVGDRVTITCKASQDVHTAVAWYQQKPGKAPKLLIYWASTRWTGVPSRFSGSGSGTDFTLTISSLQPEDFATYYCQQYHDYPWTFGGGTKVEIKRTVAAPSVFIFPPSDEQLKSGTASVVCLLNNFYPREAKVQWKVDNALQSGNSQESVTEQDSKDSTYSLSSTLTLSKADYEKHKVYACEVTHQGLSSPVTKSFNRGEC heavy 2: EVQLVQSGAEVKKPGASVKVSCKASGYTFTDYNMHWVRQAPGQGLEWMGEINPNSGGAGYNQKFKGRVTMTTDTSTSTAYMELRSLRSDDTAVYYCARLGYDDIYDDWYFDVWGQGTTVTVSSASTKGPSVFPLAPSSRSTSESTAALGCLVKDYFPEPVTVSWNSGALTSGVHTFPAVLQSSGLYSLSSVVTVPSSSLGTKTYTCNVDHKPSNTKVDKRVEPKSCDKTHTCPPCPAPELLGGPSVFLFPPKPKDTLMISRTPEVTCVVVDVSQEDPEVQFNWYVDGVEVHNAKTKPREEQFNSTYRVVSVLTVLHQDWLNGKEYKCKVSNKGLPSSIEKTISKAKGQPREPQVYTLPPSRKEMTKNQVSLTCLVKGFYPSDIAVEWESNGQPENNYKTTPPYLDSDGSFFLYSKLTVDKSRWQQGNVFSCSVMHEALHNHYTQKSLSLSP light 2: not shown
2430	~8		mabB//mabA_pH1-BS01 (bispecific antibody, human IgG1, kappa) heavy 1: QVQLVQSGAEVKKPGASVKVSCKVSGFPIKHHFQHWVRQAPGKGLEWMGWSDPEIGDTEYASKFQGRVTMTEDTSTDTAYMELSSLRSEDTAVYYCATGDTTYKFDFWGQGTTVTVSSASTKGPSVFPLAPSSRSTSESTAALGCLVKDYFPEPVTVSWNSGALTSGVHTFPAVLQSSGLYSLSSVVTVPSSSLGTKTYTCNVDHKPSNTKVDKRVEPKSCDKTHTCPPCPAPELLGGPSVFLFPPKPKDTLMISRTPEVTCVVVDVSQEDPEVQFNWYVDGVEVHNAKTKPREEQFNSTYRVVSVLTVLHQDWLNGKEYKCKVSNKGLPSSIEKTISKAKGQPREPQVYTLPPSREEMTKNQVSLTCLVKGFYPSDIAVEWESNGQPENNYKTTPPYLDSDGSFFLYSKLTVDKSRWQQGNVFSCSVMHEALHNHYTQESLSLSP light 1: DIQMTQSPSSLSASVGDRVTITCKASQDVHTAVAWYQQKPGKAPKLLIYWASTRWTGVPSRFSGSGSGTDFTLTISSLQPEDFATYYCQQYSDYHWTFGGGTKVEIKRTVAAPSVFIFPPSDEQLKSGTASVVCLLNNFYPREAKVQWKVDNALQSGNSQESVTEQDSKDSTYSLSSTLTLSKADYEKHKVYACEVTHQGLSSPVTKSFNRGEC heavy 2: EVQLVQSGAEVKKPGASVKVSCKASGYTFTDYNMHWVRQAPGQGLEWMGEINPHSGHAGYNQKFKGRVTMTTDTSTSTAYMELRSLRSDDTAVYYCARLHYDDIHDDWYFDVWGQGTTVTVSSASTKGPSVFPLAPSSRSTSESTAALGCLVKDYFPEPVTVSWNSGALTSGVHTFPAVLQSSGLYSLSSVVTVPSSSLGTKTYTCNVDHKPSNTKVDKRVEPKSCDKTHTCPPCPAPELLGGPSVFLFPPKPKDTLMISRTPEVTCVVVDVSQEDPEVQFNWYVDGVEVHNAKTKPREEQFNSTYRVVSVLTVLHQDWLNGKEYKCKVSNKGLPSSIEKTISKAKGQPREPQVYTLPPSRKEMTKNQVSLTCLVKGFYPSDIAVEWESNGQPENNYKTTPPYLDSDGSFFLYSKLTVDKSRWQQGNVFSCSVMHEALHNHYTQKSLSLSP light 2: not shown
561			mabA_NpH3-SG2 (antibody, human IgG2, kappa, V domains shown) VH: EVQLVQSGAEVKKPGASVKVSCKASGYTFTDYNMHWVRQAPGQGLEWMGEINPNSGGAGYNQKFKGRVTMTTDTSTSTAYMELRSLRSDDTAVYYCARLGYDDIYDDWYFDVWGQGTTVTVSS VL: DIQMTQSPSSLSASVGDRVTITCRASQDISNYLNWYQQKPGKAPKLLIYYHSRLLSGVPSRFSGSGSGTDFTLTISSLQPEDFATYYCHQGDTLPYTFGGGTKVEIKR
		0.0516	mabB//mabA_pH3 (bispecific antibody, V domains shown, Biparatopic) VH 1: QVQLVQSGAEVKKPGASVKVSCKVSGFPIKHHFQHWVRQAPGKGLEWMGWSDPEIGDTEYASKFQGRVTMTEDTSTDTAYMELSSLRSEDTAVYYCATGHTTYKFDFWGQGTTVTVSS VL 1: DIQMTQSPSSLSASVGDRVTITCKASQDVHTAVAWYQQKPGKAPKLLIYWASTRWTGVPSRFSGSGSGTDFTLTISSLQPEDFATYYCQQYSDYHWTFGGGTKVEIK VH 2: EVQLVQSGAEVKKPGASVKVSCKASGYTFTDYNMHWVRQAPGQGLEWMGEINPHSGHAGYNQKFKGRVTMTTDTSTSTAYMELRSLRSDDTAVYYCARLHYDDIHDDWYFDVWGQGTTVTVSS VL 2: DIQMTQSPSSLSASVGDRVTITCRASHDIHNYLNWYQQKPGKAPKLLIYYTSRLLSGVPSRFSGSGSGTDFTLTISSLQPEDFATYYCQQGDTLPYTFGGGTKVEIK
		0.000932	mabA_pH3 (antibody, V domains shown) VH: EVQLVQSGAEVKKPGASVKVSCKASGYTFTDYNMHWVRQAPGQGLEWMGEINPHSGHAGYNQKFKGRVTMTTDTSTSTAYMELRSLRSDDTAVYYCARLHYDDIHDDWYFDVWGQGTTVTVSS VL: DIQMTQSPSSLSASVGDRVTITCRASHDISNYLNWYQQKPGKAPKLLIYYTSRLLSGVPSRFSGSGSGTDFTLTISSLQPEDFATYYCQQGDTLPYTFGGGTKVEIK
		0.0347	mabB//mabA_pH1 (bispecific antibody, V domains shown, Biparatopic) VH 1: QVQLVQSGAEVKKPGASVKVSCKVSGFPIKHHFQHWVRQAPGKGLEWMGWSDPEIGDTEYASKFQGRVTMTEDTSTDTAYMELSSLRSEDTAVYYCATGDTTYKFDFWGQGTTVTVSS VL 1: DIQMTQSPSSLSASVGDRVTITCKASQDVHTAVAWYQQKPGKAPKLLIYWASTRWTGVPSRFSGSGSGTDFTLTISSLQPEDFATYYCQQYSDYHWTFGGGTKVEIK VH 2: EVQLVQSGAEVKKPGASVKVSCKASGYTFTDYNMHWVRQAPGQGLEWMGEINPHSGHAGYNQKFKGRVTMTTDTSTSTAYMELRSLRSDDTAVYYCARLHYDDIHDDWYFDVWGQGTTVTVSS VL 2: DIQMTQSPSSLSASVGDRVTITCRASHDIHNYLNWYQQKPGKAPKLLIYYTSRLLSGVPSRFSGSGSGTDFTLTISSLQPEDFATYYCQQGDTLPYTFGGGTKVEIK
		0.0186	mabB//mabA_pH2 (bispecific antibody, V domains shown, Biparatopic) VH 1: QVQLVQSGAEVKKPGASVKVSCKVSGFPIKHHFQHWVRQAPGKGLEWMGWSDPEIGDTEYASKFQGRVTMTEDTSTDTAYMELSSLRSEDTAVYYCATGHTTYKFDFWGQGTTVTVSS VL 1: DIQMTQSPSSLSASVGDRVTITCKASQDVHTAVAWYQQKPGKAPKLLIYWASTRWTGVPSRFSGSGSGTDFTLTISSLQPEDFATYYCQQYSDYHWTFGGGTKVEIK VH 2: EVQLVQSGAEVKKPGASVKVSCKASGYTFTDYNMHWVRQAPGQGLEWMGEINPHSGHAGYNQKFKGRVTMTTDTSTSTAYMELRSLRSDDTAVYYCARLHYDDIHDDWYFDVWGQGTTVTVSS VL 2: DIQMTQSPSSLSASVGDRVTITCRASHDISNYLNWYQQKPGKAPKLLIYYTSRLLSGVPSRFSGSGSGTDFTLTISSLQPEDFATYYCQQGDTLPYTFGGGTKVEIK
